Each block holds one molecule with its values, some of them ahead of it.
B2: N99D SufS (enzyme, E. coli)
chain: MIFSVDKVRADFPVLSREVNGLPLAYLDSAASAQKPSQVIDAEAEFYRHGYAAVHRGIHTLSAQATEKMENVRKRASLFINARSAEELVFVRGTTEGIDLVANSWGNSNVRAGDNIIISQMEHHANIVPWQMLCARVGAELRVIPLNPDGTLQLETLPTLFDEKTRLLAITHVSNVLGTENPLAEMITLAHQHGAKVLVDGAQAVMHHPVDVQALDCDFYVFSGHKLYGPTGIGILYVKEALLQEMPPWEGGGSMIATVSLSEGTTWTKAPWRFEAGTPNTGGIIGLGAALEYVSALGLNNIAEYEQNLMHYALSQLESVPDLTLYGPQNRLGVIAFNLGKHHAYDVGSFLDNYGIAVRTGHHCAMPLMAYYNVPAMCRASLAMYNTHEEVDRLVTGLQRIHRLLG
notes: SufS cysteine desulfurase, E. coli, UniProt P77444, with N99D; gene in pET-21(a); Carries the PLP cofactor; No tag named; Dimer in the crystal structure; residues 248 to 268 have no electron density; also called SufS N99D; source: E. coli BL21(DE3)Δsuf, pET21, purified (Q-XL, Phenyl HP, Superdex 200)
B3: N99A SufS (enzyme, E. coli)
chain: MIFSVDKVRADFPVLSREVNGLPLAYLDSAASAQKPSQVIDAEAEFYRHGYAAVHRGIHTLSAQATEKMENVRKRASLFINARSAEELVFVRGTTEGIALVANSWGNSNVRAGDNIIISQMEHHANIVPWQMLCARVGAELRVIPLNPDGTLQLETLPTLFDEKTRLLAITHVSNVLGTENPLAEMITLAHQHGAKVLVDGAQAVMHHPVDVQALDCDFYVFSGHKLYGPTGIGILYVKEALLQEMPPWEGGGSMIATVSLSEGTTWTKAPWRFEAGTPNTGGIIGLGAALEYVSALGLNNIAEYEQNLMHYALSQLESVPDLTLYGPQNRLGVIAFNLGKHHAYDVGSFLDNYGIAVRTGHHCAMPLMAYYNVPAMCRASLAMYNTHEEVDRLVTGLQRIHRLLG
notes: SufS cysteine desulfurase, E. coli, UniProt P77444, with N99A; gene in pET-21(a); Carries the PLP cofactor; No tag named; Dimer in the crystal structure; also called SufS N99A; source: E. coli BL21(DE3)Δsuf, pET21, purified (Q-XL, Phenyl HP, Superdex 200)

Experiments:
SufE (Escherichia coli) = SufE (Escherichia coli) (UniProt P76194); conditions: cited from earlier work
SufS = SufS (Escherichia coli, UniProt P77444); conditions: no SufE, 500 μM cysteine, with and without 2 mM TCEP, pH 8.0, 25 °C
D346R SufS = target: T1, D346R SufS (E. coli, UniProt P77444 1-406, D346R); test: fluorescence polarisation; SufS (0.2-40 μM) titrated against 100 nM BODIPY-labelled C51A/E107C SufE; no cysteine; 50 mM MOPS pH 8, 150 mM NaCl, 0.1 mg/ml BSA; 30 min at room temperature; black 96-well plates; fit to a single-affinity site (Equation 3); conditions: both partners purified
T1 construct: SufS cysteine desulfurase, E. coli, UniProt P77444, with D346R; gene in pET-21(a); No tag named; nothing is said of the oligomeric state of this variant; source: E. coli BL21(DE3)Δsuf, pET21, purified (Q-XL, Phenyl HP, Superdex 200)
T1 sequence: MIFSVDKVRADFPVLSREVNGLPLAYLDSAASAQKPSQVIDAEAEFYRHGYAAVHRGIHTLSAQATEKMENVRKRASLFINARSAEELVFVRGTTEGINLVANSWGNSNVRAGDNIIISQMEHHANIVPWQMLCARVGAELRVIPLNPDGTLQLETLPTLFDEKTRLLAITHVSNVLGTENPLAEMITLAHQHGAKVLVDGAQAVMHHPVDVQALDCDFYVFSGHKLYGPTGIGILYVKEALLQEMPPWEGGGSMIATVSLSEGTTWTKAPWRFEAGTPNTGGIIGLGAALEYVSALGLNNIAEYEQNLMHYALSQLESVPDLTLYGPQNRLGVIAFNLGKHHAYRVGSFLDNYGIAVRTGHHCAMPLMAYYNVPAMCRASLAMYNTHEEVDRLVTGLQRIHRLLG

[1] = target: T2, SufS cysteine desulfurase, wild type (E. coli, UniProt P77444 1-406); test: fluorescence polarisation; as without cysteine, but in the presence of 500 μM cysteine: SufS titrated against 100 nM BODIPY-labelled C51A/E107C SufE; 50 mM MOPS pH 8, 150 mM NaCl, 0.1 mg/ml BSA; room temperature; conditions: both partners purified
T2 construct: SufS cysteine desulfurase, E. coli, UniProt P77444; gene in pET-21(a); PLP-dependent enzyme; as purified it carries the pyridoxal-5'-phosphate cofactor (internal aldimine); also called WT SufS; wt SufS; source: E. coli BL21(DE3)Δsuf, pET21, purified (Q-XL, Phenyl HP, Superdex 200)
T2 sequence: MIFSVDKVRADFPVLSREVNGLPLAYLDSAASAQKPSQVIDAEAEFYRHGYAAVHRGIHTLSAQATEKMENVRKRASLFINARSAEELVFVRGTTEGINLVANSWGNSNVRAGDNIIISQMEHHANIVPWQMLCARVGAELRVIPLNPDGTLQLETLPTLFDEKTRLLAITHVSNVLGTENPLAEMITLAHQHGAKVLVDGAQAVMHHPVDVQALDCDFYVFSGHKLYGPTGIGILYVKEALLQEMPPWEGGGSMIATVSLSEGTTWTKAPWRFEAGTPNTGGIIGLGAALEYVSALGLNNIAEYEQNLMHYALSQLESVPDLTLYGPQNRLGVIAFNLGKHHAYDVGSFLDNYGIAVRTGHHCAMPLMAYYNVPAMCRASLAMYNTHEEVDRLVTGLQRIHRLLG

N99A SufS [2] = target: B3; test: as above; conditions: both partners purified
N99D SufS [3] = target: B2; test: as above; conditions: both partners purified
[4] = target: T2, SufS cysteine desulfurase, wild type; test: fluorescence polarisation; SufS (0.2-40 μM) titrated against 100 nM BODIPY-labelled C51A/E107C SufE; no cysteine; 50 mM MOPS pH 8, 150 mM NaCl, 0.1 mg/ml BSA; 30 min at room temperature; black 96-well plates; fit to a single-affinity site (Equation 3); conditions: both partners purified
N99A SufS [5] = target: B3; test: as above; conditions: both partners purified
N99D SufS [6] = target: B2; test: as above; conditions: both partners purified
[7] = target: the molecule itself; test: crystal structure; sitting drop vapor diffusion at 20 °C, 4 to 4.5 M NaCl, 100 mM MES pH 6.5; SufS variant alone, dimer

Molecule: SufS (from UniProt P77444)
- Kd (SufE (Escherichia coli)): 500 nM

Molecule: N[C@@H](CS)C(=O)O [cysteine]
- alanine production plate-reader assay; UV-visible cysteine-PLP intermediates (SufS): WT SufS is also capable of producing alanine

- Kd (D346R SufS): > 40 µM
- Kd [1]: 600 ± 200 nM
- Kd (N99A SufS [2]): 3.1 ± 0.6 µM
- Kd (N99D SufS [3]): 3.3 ± 0.7 µM
- Kd [4]: 5.2 µM
- Kd (N99A SufS [5]): 6.2 ± 1.8 µM
- Kd (N99D SufS [6]): 9.9 ± 3 µM
B1: BODIPY-labelled C51A/E107C SufE (natural protein, E. coli)
chain: MALLPDKEKLLRNFLRCANWEEKYLYIIELGQRLPELRDEDRSPQNSIQGAQSQVWIVMRQNAQGIIELQGDSDAAIVKGLIAVVFILYDQMTPQDIVNFDVRPWFCKMALTQHLTPSRSQGLEAMIRAIRAKAAALS
modifications: BODIPY FL maleimide on the cysteine at 107 (E107C); labelling efficiency between 60 and 80%
notes: SufE transpersulfurase, E. coli, UniProt P76194, with C51A and E107C; gene in pET-21(a); No tag named; also called labeled C51A/E107C SufE; BODPIY-C51A/E107C SufE; source: E. coli BL21(DE3), pET21, purified (Q-XL, Superdex 200), labelled with BODIPY FL maleimide

Molecule: B2
- binding result [7]: binds

Molecule: B3
- binding result [7]: binds
